Test results taken from patent publication US20130189280A1.

Tests used:
[1] = biological target: human hemoglobin (Sigma) (human) (UniProt P69905)
[2] = biological target: fibrinogen from human plasma (Sigma) (human) (UniProt P02671); assay: ELISA, fibrinogen titrated on immobilized K1; apparent Kd (FIG. 21)
[3] = biological target: fibrinogen from human plasma (Sigma) (human) (UniProt P02671); assay: ELISA, fibrinogen titrated on immobilized K3; apparent Kd (FIG. 21)
[4] = biological target: complex of recombinant human serum albumin and hemin (rHSA-heme) (human) (UniProt P02768); assay: ELISA, rHSA-heme against rHSA on immobilized K3 (FIG. 22)

K1 domain (Gly982-Gly1154) of lysine gingipain Kgp from Porphyromonas gingivalis W83, recombinant (from UniProt Q51817 982-1154)
Kd [1]: 360 nM | Kd [2]: 1500 nM

K3 domain (Ala1427-Gly1602) of lysine gingipain Kgp from Porphyromonas gingivalis W83, recombinant, non-tagged (from UniProt Q51817 1427-1602)
Kd [1]: 154 nM | Kd [3]: 570 nM | fold increase of binding affinity against rHSA without heme [4]: 9 fold
